Test results reported in US20250154250A1, “CEACAM5 ADC-ANTI-PD1/PD-L1 COMBINATION THERAPY” (SANOFI, priority 2021, published 2025).

Biological target: T1, recombinant human CEACAM5 (Homo sapiens, UniProt P06731)
T1 sequence (P06731 35-676): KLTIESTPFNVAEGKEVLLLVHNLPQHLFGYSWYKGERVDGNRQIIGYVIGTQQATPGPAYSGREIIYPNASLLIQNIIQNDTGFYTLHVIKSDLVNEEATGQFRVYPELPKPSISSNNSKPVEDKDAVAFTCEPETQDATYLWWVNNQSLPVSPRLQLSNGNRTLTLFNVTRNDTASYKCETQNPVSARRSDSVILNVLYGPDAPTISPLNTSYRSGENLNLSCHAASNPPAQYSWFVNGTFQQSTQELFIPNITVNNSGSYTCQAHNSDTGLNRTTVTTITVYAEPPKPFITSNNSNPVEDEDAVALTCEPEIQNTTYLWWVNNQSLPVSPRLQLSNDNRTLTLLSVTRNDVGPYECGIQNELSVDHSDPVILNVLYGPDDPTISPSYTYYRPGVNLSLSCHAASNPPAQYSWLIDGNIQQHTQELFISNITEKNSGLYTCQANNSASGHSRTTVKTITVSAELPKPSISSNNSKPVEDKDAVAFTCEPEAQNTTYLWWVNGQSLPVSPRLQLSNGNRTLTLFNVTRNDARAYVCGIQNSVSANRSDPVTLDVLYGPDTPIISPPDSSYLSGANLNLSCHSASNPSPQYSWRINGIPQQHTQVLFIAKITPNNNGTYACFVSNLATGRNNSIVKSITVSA
Experiment: ELISA binding to recombinant human CEACAM5
Details: read-out: affinity (ELISA)
Source text: “Affinity” is defined, in theory, by the equilibrium association between the whole antibody and the antigen. It can be experimentally assessed by a variety of known methods, such as measuring association and dissociation rates with surface plasmon resonance or measuring the EC50 (or apparent KD) in an immunochemical assay (ELISA, FACS). In these assays, the EC50 is the concentration of the antibody which induces a response halfway between the baseline and maximum after some specified exposure time on a defined concentration of antigen by ELISA (enzyme-linked immuno-sorbent assay) or cell expressing the antigen by FACS (Fluorescence Activated Cell Sorting).
Affinity for human CEACAM5 or for Macaca fascicularis CEACAM5 may be determined as the EC50 value in an ELISA using soluble recombinant CEACAM5 as capture antigen.

B1: naked antibody: humanized anti-CEACAM5 antibody (tusamitamab), CAS Registry No. 2349294-95-5; VH SEQ ID NO: 6, VL SEQ ID NO: 7 (antibody, V domains shown)
VH: EVQLQESGPGLVKPGGSLSLSCAASGFVFSSYDMSWVRQTPERGLEWVAYISSGGGITYAPSTVKGRFTVSRDNAKNTLYLQMNSLTSEDTAVYYCAAHYFGSSGPFAYVVGQGTLVTVSS
VL: DIQMTQSPASLSASVGDRVTITCRASENIFSYLAWYQQKPGKSPKLLVYNTRTLAEGVPSRFSGSGSGTDFSLTISSLQPEDFATYYCQHHYGTPFTFGSGTKLEI
EC50: ~0.02 nM
